Results published in PMC4931317, “UtpA and UtpB chaperone nascent pre-ribosomal RNA and U3 snoRNA to initiate eukaryotic ribosome assembly” (Nature Communications, 2016).
Blank lines part the entries; values can stand above or below the binder they belong to.

Columns and labels:
Utp10-3C-GFP [1] = target: T1, Utp10-3C-GFP (S. cerevisiae, UniProt P42945 1-1769); test: pull-down + SEC; endogenous UtpA from YSK32 lysate captured via Utp10-GFP on anti-GFP nanobody sepharose; 50 mM HEPES-NaOH pH 7.6, 200 mM NaCl, 1 mM EDTA, 4 °C; eluted with TEV and 3C protease; Superose 6; peak fraction on Coomassie-stained SDS-PAGE; conditions: partners not purified
T1 construct: Utp10, S. cerevisiae, subunit of UtpA (200 kDa); GFP is joined through a 3C protease site; it holds the protein on the beads in a1-a3 and is cleaved off by 3C on elution, so it is absent in the SEC step and in the DSS cross-linking (a6); also called Utp10-GFP; Utp10-sbp-H14-3C-GFP; source: S. cerevisiae YSK32, C-terminal tag integrated in the genome, endogenous level; captured from lysate on …

Utp10-3C-GFP [2] = target: T1, Utp10-3C-GFP; test: cross-linking; DSS (0.2 mM, H12/D12) cross-linking of SEC-purified endogenous UtpA, 25 °C, 30 min, 50 mM HEPES-NaOH pH 7.6, 200 mM NaCl, 1 mM EDTA; cross-linked peptides found by mass spectrometry (pLink); conditions: both partners purified
Utp4 = target: T2, Utp4 (S. cerevisiae, UniProt Q06679 1-776); test: as above; conditions: both partners purified
T2 construct: Utp4, S. cerevisiae, subunit of UtpA; No tag is named for it in either strain; strains are in Supplementary Data 1; source: endogenous, S. cerevisiae YSK32, co-purified with Utp10-GFP; overexpressed (galactose promoter) in S. cerevisiae YSK122, co-purified with Utp15-mCherry
T2 sequence (looked up): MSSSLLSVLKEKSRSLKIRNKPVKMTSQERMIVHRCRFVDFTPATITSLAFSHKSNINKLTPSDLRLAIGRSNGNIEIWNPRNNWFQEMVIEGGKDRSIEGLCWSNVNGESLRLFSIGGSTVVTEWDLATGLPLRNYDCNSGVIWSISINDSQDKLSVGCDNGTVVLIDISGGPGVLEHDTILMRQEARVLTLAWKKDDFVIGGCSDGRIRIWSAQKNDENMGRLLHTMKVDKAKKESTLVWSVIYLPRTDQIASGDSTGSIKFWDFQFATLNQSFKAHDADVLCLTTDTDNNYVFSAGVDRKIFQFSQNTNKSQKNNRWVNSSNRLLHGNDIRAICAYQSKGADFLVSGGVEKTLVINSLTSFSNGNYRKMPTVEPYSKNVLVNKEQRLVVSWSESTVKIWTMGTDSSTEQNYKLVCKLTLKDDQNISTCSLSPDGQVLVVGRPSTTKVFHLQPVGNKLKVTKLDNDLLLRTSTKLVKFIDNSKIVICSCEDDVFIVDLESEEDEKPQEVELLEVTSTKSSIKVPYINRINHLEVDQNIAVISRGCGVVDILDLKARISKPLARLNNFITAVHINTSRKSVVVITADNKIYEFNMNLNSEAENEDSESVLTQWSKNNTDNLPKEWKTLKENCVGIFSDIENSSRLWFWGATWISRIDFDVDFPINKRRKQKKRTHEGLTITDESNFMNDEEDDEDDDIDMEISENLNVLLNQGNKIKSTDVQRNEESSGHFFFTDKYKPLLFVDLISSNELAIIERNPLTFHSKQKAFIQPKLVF

T1 sequence (P42945 whole entry): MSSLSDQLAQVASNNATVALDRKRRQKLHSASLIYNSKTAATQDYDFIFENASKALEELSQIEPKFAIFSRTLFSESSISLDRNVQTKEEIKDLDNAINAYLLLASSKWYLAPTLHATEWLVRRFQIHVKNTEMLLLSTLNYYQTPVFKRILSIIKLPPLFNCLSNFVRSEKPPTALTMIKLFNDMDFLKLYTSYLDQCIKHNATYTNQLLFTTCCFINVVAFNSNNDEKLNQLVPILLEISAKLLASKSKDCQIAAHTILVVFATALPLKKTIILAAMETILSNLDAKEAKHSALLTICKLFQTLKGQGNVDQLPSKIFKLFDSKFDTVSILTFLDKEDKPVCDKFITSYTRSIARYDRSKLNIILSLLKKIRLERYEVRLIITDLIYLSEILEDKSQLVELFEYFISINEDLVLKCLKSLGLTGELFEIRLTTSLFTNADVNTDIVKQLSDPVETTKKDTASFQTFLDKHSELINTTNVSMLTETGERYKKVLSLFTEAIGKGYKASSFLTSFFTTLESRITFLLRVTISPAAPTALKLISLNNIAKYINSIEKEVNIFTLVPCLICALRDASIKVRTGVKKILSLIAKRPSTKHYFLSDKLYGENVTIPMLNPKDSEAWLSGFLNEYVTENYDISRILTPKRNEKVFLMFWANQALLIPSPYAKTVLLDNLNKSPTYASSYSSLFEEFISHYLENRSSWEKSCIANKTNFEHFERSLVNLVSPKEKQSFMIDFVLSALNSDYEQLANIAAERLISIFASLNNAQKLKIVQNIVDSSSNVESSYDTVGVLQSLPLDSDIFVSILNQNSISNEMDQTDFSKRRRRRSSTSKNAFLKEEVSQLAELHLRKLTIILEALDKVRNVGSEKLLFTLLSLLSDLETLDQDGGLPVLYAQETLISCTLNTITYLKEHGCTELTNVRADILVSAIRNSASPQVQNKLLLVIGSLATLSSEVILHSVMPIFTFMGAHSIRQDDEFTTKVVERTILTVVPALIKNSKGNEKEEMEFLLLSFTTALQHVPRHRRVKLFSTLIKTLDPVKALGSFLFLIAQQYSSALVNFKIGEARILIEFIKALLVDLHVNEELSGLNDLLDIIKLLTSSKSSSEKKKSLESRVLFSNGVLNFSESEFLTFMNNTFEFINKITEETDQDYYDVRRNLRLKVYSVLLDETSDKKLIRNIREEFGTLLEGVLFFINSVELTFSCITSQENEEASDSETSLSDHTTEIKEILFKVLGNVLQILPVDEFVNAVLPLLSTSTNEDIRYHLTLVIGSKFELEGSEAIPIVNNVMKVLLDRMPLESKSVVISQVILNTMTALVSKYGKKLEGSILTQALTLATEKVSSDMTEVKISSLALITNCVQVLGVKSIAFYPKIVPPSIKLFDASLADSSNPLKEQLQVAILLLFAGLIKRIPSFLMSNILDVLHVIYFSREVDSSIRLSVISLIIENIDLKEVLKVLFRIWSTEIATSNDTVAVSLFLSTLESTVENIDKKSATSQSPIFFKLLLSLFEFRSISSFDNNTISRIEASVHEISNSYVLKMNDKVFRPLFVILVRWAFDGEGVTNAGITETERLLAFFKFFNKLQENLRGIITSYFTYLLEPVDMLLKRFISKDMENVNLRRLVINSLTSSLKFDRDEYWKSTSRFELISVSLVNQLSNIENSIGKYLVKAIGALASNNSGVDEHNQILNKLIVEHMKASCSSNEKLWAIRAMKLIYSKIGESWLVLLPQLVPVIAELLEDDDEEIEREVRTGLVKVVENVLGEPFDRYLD

- binding result (Utp10-3C-GFP [1]): binds
B1: Utp5 (natural protein, S. cerevisiae, UniProt Q04177 1-643, looked up)
chain: MDSPVLQSAYDPSGQYLCYVTVALDKQRVGVQPTQRATSSGVDTVWNENFLYLEDSKLKVTCLKWVNLASSDTVAIILGMNNGEIWLYSVLANEVTYKFTTGNSYEIKDIDLMGNQLWCIDSSDAFYQFDLLQFKLLQHFRINNCVQLNKLTIVPAGDSVAQLLVASHSISLIDIEEKKVVMTFPGHVSPVSTLQVITNEFFISGAEGDRFLNVYDIHSGMTKCVLVAESDIKELSHSGQADSIAVTTEDGSLEIFVDPLVSSSTKKRGNKSKKSSKKIQIVSKDGRKVPIYNAFINKDLLNVSWLQNATMPYFKNLQWREIPNEYTVEISLNWNNKNKSADRDLHGKDLASATNYVEGNARVTSGDNFKHVDDAIKSWERELTSLEQEQAKPPQANELLTETFGDKLESSTVARISGKKTNLKGSNLKTATTTGTVTVILSQALQSNDHSLLETVLNNRDERVIRDTIFRLKPALAVILLERLAERIARQTHRQGPLNVWVKWCLIIHGGYLVSIPNLMSTLSSLHSTLKRRSDLLPRLLALDARLDCTINKFKTLNYEAGDIHSSEPVVEEDEDDVEYNEELDDAGLIEDGEESYGSEEEEEGDSDNEEEQKHTSSKQDGRLETEQSDGEEEAGYSDVEME
notes: Utp5, S. cerevisiae, subunit of UtpA; No tag is named for it in either strain; strains are in Supplementary Data 1; source: endogenous, S. cerevisiae YSK32, co-purified with Utp10-GFP; overexpressed (galactose promoter) in S. cerevisiae YSK122, co-purified with Utp15-mCherry

- binding result (Utp10-3C-GFP [2]): binds
- binding result (Utp4): binds
B2: Utp8 (natural protein, S. cerevisiae, UniProt P53276 1-713, looked up)
chain: MPSLSQPFRLATLPKIASLSNFSLQADYVQVADGTFNESTNNITLGISGSSISQYIINPTPKLTFDYPIPSTNIITACNAEKGQANIDGNIEASTDDEANNEKTINTQKKRNVEIWAFGLMVNKGNYTLNVITKALEDTTDTSNDHLSESDIDNKAYTGSDEFLSQYKIKAKAKVMSIKIDTKNSLVIAILQNGLIEIFDFKLTLLHSFDISYDNLKYAKWFTENGTEYVFVLCPLQDDKVCYKLLELTDCGSGESSPIKELSSTIIEGFSFENSKLCYQFGKLYKLNQGKIYIYSLPHCQLQQVIEFPMVDKLSPGDDLISFQPVSVNRVLLTVNNVIYLLDLLHCSTLSQRELTHVKTFQLLKSAVINSEKSHNSKTIAIGISTKNGPNPTSSLEIINIDVGTNTLKDSLGKSFQVGNNDSSVILKPLFDDKDINDKRVKCNDVSGDSSVPVLHCNEVIEKLSALQDNDITSFDDIFFKELKIKEEHYTEKDRYISDPGFLNKVLDLIFGKFSGNDYPKTLTFLLTHPLFPLSRTRNLLSLLRDQPRLFKQAIVTCPNLPLNELLEELFSIRNRELLLDISFRILQDFTRDSIKQEMKKLSKLDVQNFIEFITSGGEDSSPECFNPSQSTQLFQLLSLVLDSIGLFSLEGALLENLTLYIDKQVEIAERNTELWNLIDTKGFQHGFASSTFDNGTSQKRALPTYTMEYLDI
notes: Utp8, S. cerevisiae, subunit of UtpA; No tag is named for it in either strain; strains are in Supplementary Data 1; source: endogenous, S. cerevisiae YSK32, co-purified with Utp10-GFP; overexpressed (galactose promoter) in S. cerevisiae YSK122, co-purified with Utp15-mCherry
